The values that follow come from the supplement of paper PMC12783771.

± gives the standard deviation of the averaged measurements.

To fix the notation:
B1: library; numbered along this chain (parent)
chain: MNIQIGELAKRTACPVVTIRFYEQEGLLPPPGRSRGNFRLYGEEHVERLQFIRHCRSLDMPLSDVRTLLSYRKRPDQDCGEVNMLLDEHIRQVESRIGALLELKHHLVELREACSGARPAQSCGILQGLSDCVCDTRGTTAHPSD

Variants of B1 are the subject of series [1]. Put plainly: sfGFP reporter fluorescence (15 h) (µM FITC); higher = higher leak. Particulars: library round: Round 1; ligand: none. As for the experimental part:
(§1)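 Cell-free biosensing: 1 µL Echo-assembled CFE reactions with linear PbrR variant templates (5 nM) and pPbrR-sfGFP reporter, with 1 µM Pb, 30 µM Zn or no ligand; endpoint sfGFP fluorescence after 15 h at 30 °C calibrated as µM FITC. Round 1 ML-predicted PbrR mutants; 3 biological replicates.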

Series [2] covers variants of B1. The series is described as follows: sfGFP reporter fluorescence (15 h) (µM FITC); higher = stronger transcriptional activation. The note with it: library round: Round 1. The protocol:
as §1

Turning to N83T L107F, the sfGFP reporter fluorescence was found to be 0.06096 ± 0.00056 in series [1], 0.059 ± 0.002 in series [2] (ligand: 1 µM Pb) and 0.0604 ± 0.0011 in series [2] (ligand: 30 µM Zn).

Consider L107C C134I, for which the sfGFP reporter fluorescence in series [1] turned out to be 0.731 ± 0.13; in series [2] (ligand: 1 µM Pb), 1.15 ± 0.15; in series [2] (ligand: 30 µM Zn), 2.12 ± 0.21.

L107C E109H: the values for the sfGFP reporter fluorescence in series [1], in series [2] (ligand: 1 µM Pb) and in series [2] (ligand: 30 µM Zn) were 0.16 ± 0.0068, 0.673 ± 0.092 and 1.68 ± 0.14, respectively.

L129I D131C: the figures for the sfGFP reporter fluorescence in series [1], in series [2] (ligand: 1 µM Pb) and in series [2] (ligand: 30 µM Zn) were 0.0646 ± 0.0017, 0.0641 ± 0.0044 and 0.07 ± 0.0017, respectively.

In the case of N83T D135A P143A, the sfGFP reporter fluorescence in series [1] stood at 0.0625 ± 0.002; in series [2] (ligand: 1 µM Pb) it was 0.0748 ± 0.0033; in series [2] (ligand: 30 µM Zn) it was 0.162 ± 0.0078.

Consider V108R P143M, for which the sfGFP reporter fluorescence in series [1] came to 0.0636 ± 0.002; in series [2] (ligand: 1 µM Pb), 0.0724 ± 0.0057; in series [2] (ligand: 30 µM Zn), 0.376 ± 0.019.

E112I D131C: the sfGFP reporter fluorescence in series [1] was 0.06499 ± 0.00042; in series [2] (ligand: 1 µM Pb), 0.0652 ± 0.002; in series [2] (ligand: 30 µM Zn), 0.083 ± 0.0019.

V108E E109H: the sfGFP reporter fluorescence turned out to be 0.0605 ± 0.0011 in series [1], 0.0687 ± 0.003 in series [2] (ligand: 1 µM Pb) and 0.224 ± 0.01 in series [2] (ligand: 30 µM Zn).

For G128H D131C, the sfGFP reporter fluorescence in series [1] is 0.0654 ± 0.0018; in series [2] (ligand: 1 µM Pb), 0.0887 ± 0.01; in series [2] (ligand: 30 µM Zn), 0.187 ± 0.02.

For K104V R111D, the sfGFP reporter fluorescence in series [1] was 0.0612 ± 0.0019; in series [2] (ligand: 1 µM Pb) it was 0.0619 ± 0.0015; in series [2] (ligand: 30 µM Zn), 0.0723 ± 0.0033.

In the case of K104V R111A, the values for the sfGFP reporter fluorescence in series [1], in series [2] (ligand: 1 µM Pb) and in series [2] (ligand: 30 µM Zn) were 0.0644 ± 0.0027, 0.096 ± 0.0033 and 0.356 ± 0.013, respectively.

Turning to K104V R111L, the sfGFP reporter fluorescence in series [1] was 0.0656 ± 0.0016; in series [2] (ligand: 1 µM Pb) it was 0.0694 ± 0.0047; in series [2] (ligand: 30 µM Zn) it was 0.0976 ± 0.0039.

For the variant N83T D131C, the sfGFP reporter fluorescence was 0.0627 ± 0.0013 in series [1], 0.0738 ± 0.0019 in series [2] (ligand: 1 µM Pb) and 0.0784 ± 0.0036 in series [2] (ligand: 30 µM Zn).

For N83T D131S, the values for the sfGFP reporter fluorescence in series [1], in series [2] (ligand: 1 µM Pb) and in series [2] (ligand: 30 µM Zn) were 0.0602 ± 0.0017, 0.0836 ± 0.0031 and 0.146 ± 0.016, respectively.

For the variant N83T D131H, the sfGFP reporter fluorescence in series [1] amounted to 0.0632 ± 0.0011; in series [2] (ligand: 1 µM Pb), 0.0836 ± 0.0011; in series [2] (ligand: 30 µM Zn), 0.14 ± 0.012.

Turning to E109D D135R, the sfGFP reporter fluorescence came out at 0.06377 ± 0.00037 in series [1], 0.0733 ± 0.0076 in series [2] (ligand: 1 µM Pb) and 0.422 ± 0.031 in series [2] (ligand: 30 µM Zn).

For I97S K104V, the sfGFP reporter fluorescence in series [1] was found to be 0.0836 ± 0.0026; in series [2] (ligand: 1 µM Pb), 0.247 ± 0.016; in series [2] (ligand: 30 µM Zn), 0.825 ± 0.05.

Consider N83T E109L P143R, for which the values for the sfGFP reporter fluorescence in series [1], in series [2] (ligand: 1 µM Pb) and in series [2] (ligand: 30 µM Zn) were 0.0641 ± 0.00073, 0.0812 ± 0.0015 and 0.183 ± 0.0048, respectively.

Consider L129V D135A, for which the sfGFP reporter fluorescence was found to be 0.0641 ± 0.00097 in series [1], 0.0619 ± 0.003 in series [2] (ligand: 1 µM Pb) and 0.0639 ± 0.0027 in series [2] (ligand: 30 µM Zn).

For N83T L107C D135A P143T, the sfGFP reporter fluorescence in series [1] is 0.1501 ± 0.0015; in series [2] (ligand: 1 µM Pb), 0.642 ± 0.046; in series [2] (ligand: 30 µM Zn), 1.85 ± 0.12.

As to L107I P143R, the figures for the sfGFP reporter fluorescence in series [1], in series [2] (ligand: 1 µM Pb) and in series [2] (ligand: 30 µM Zn) were 0.06365 ± 0.00021, 0.0775 ± 0.0077 and 0.473 ± 0.02, respectively.

R96Q: the sfGFP reporter fluorescence in series [1] turned out to be 0.0632 ± 0.0037; in series [2] (ligand: 1 µM Pb), 0.0982 ± 0.0089; in series [2] (ligand: 30 µM Zn) it was 0.455 ± 0.0056.

Take R96S: the sfGFP reporter fluorescence in series [1] was found to be 0.0636 ± 0.0021; in series [2] (ligand: 1 µM Pb), 0.0924 ± 0.0049; in series [2] (ligand: 30 µM Zn), 0.328 ± 0.015.

Consider R96G, for which the values for the sfGFP reporter fluorescence in series [1], in series [2] (ligand: 1 µM Pb) and in series [2] (ligand: 30 µM Zn) were 0.0668 ± 0.0022, 0.076 ± 0.004 and 0.195 ± 0.012, respectively.

Turning to N83T E109F, the sfGFP reporter fluorescence in series [1] worked out at 0.0638 ± 0.0013; in series [2] (ligand: 1 µM Pb), 0.0862 ± 0.0036; in series [2] (ligand: 30 µM Zn), 0.315 ± 0.0065.

Turning to L126I D135A, the results for the sfGFP reporter fluorescence in series [1], in series [2] (ligand: 1 µM Pb) and in series [2] (ligand: 30 µM Zn) were 0.0632 ± 0.0024, 0.064 ± 0.0037 and 0.152 ± 0.0059, respectively.

In the case of L107C R111L G128M, the sfGFP reporter fluorescence in series [1] worked out at 0.333 ± 0.022; in series [2] (ligand: 1 µM Pb) it was 1.15 ± 0.33; in series [2] (ligand: 30 µM Zn), 2.19 ± 0.32.

On to G128I C134E, for which the results for the sfGFP reporter fluorescence in series [1], in series [2] (ligand: 1 µM Pb) and in series [2] (ligand: 30 µM Zn) were 0.0745 ± 0.0014, 0.139 ± 0.0047 and 1.38 ± 0.067, respectively.

As to R111L G128P, the sfGFP reporter fluorescence in series [1] turned out to be 0.0584 ± 0.0015; in series [2] (ligand: 1 µM Pb), 0.0568 ± 0.0028; in series [2] (ligand: 30 µM Zn) it was 0.0542 ± 0.0045.

Consider R111L G128I, for which the sfGFP reporter fluorescence in series [1] was 0.0666 ± 0.0024; in series [2] (ligand: 1 µM Pb), 0.0985 ± 0.0091; in series [2] (ligand: 30 µM Zn), 0.528 ± 0.024.

Turning to R91A K104V, the sfGFP reporter fluorescence was found to be 0.0657 ± 0.0027 in series [1], 0.119 ± 0.002 in series [2] (ligand: 1 µM Pb) and 0.748 ± 0.029 in series [2] (ligand: 30 µM Zn).

Take N83T D131M D135A: the sfGFP reporter fluorescence in series [1] worked out at 0.0656 ± 0.0024; in series [2] (ligand: 1 µM Pb), 0.0837 ± 0.0023; in series [2] (ligand: 30 µM Zn), 0.205 ± 0.011.

Consider R111I G128I, for which the sfGFP reporter fluorescence was 0.0666 ± 0.0015 in series [1], 0.127 ± 0.0043 in series [2] (ligand: 1 µM Pb) and 0.695 ± 0.036 in series [2] (ligand: 30 µM Zn).

On to Q121A D135A, for which the figures for the sfGFP reporter fluorescence in series [1], in series [2] (ligand: 1 µM Pb) and in series [2] (ligand: 30 µM Zn) were 0.0661 ± 0.0031, 0.0888 ± 0.0096 and 0.743 ± 0.11, respectively.

In the case of N83V C134S, the sfGFP reporter fluorescence in series [1] is 0.0579 ± 0.00097; in series [2] (ligand: 1 µM Pb), 0.0667 ± 0.0035; in series [2] (ligand: 30 µM Zn) it was 0.055 ± 0.00064.

Consider N83T R111A, for which the sfGFP reporter fluorescence is 0.0564 ± 0.00097 in series [1], 0.0834 ± 0.0021 in series [2] (ligand: 1 µM Pb) and 0.341 ± 0.031 in series [2] (ligand: 30 µM Zn).

In the case of N83T R111L, the sfGFP reporter fluorescence worked out at 0.0571 ± 0.0031 in series [1], 0.0683 ± 0.0036 in series [2] (ligand: 1 µM Pb) and 0.167 ± 0.011 in series [2] (ligand: 30 µM Zn).

Regarding N83T R111F, the sfGFP reporter fluorescence is 0.0639 ± 0.0014 in series [1], 0.0644 ± 0.004 in series [2] (ligand: 1 µM Pb) and 0.085 ± 0.0026 in series [2] (ligand: 30 µM Zn).

N83T R111D: the results for the sfGFP reporter fluorescence in series [1], in series [2] (ligand: 1 µM Pb) and in series [2] (ligand: 30 µM Zn) were 0.0624 ± 0.00076, 0.06 ± 0.0029 and 0.068 ± 0.0024, respectively.

K104A G128M: the sfGFP reporter fluorescence came out at 0.0657 ± 0.0021 in series [1], 0.109 ± 0.01 in series [2] (ligand: 1 µM Pb) and 0.897 ± 0.013 in series [2] (ligand: 30 µM Zn).

For N83T V108L D131C P143T, the sfGFP reporter fluorescence in series [1] came out at 0.06365 ± 0.00056; in series [2] (ligand: 1 µM Pb), 0.0753 ± 0.002; in series [2] (ligand: 30 µM Zn), 0.0975 ± 0.0026.

For L107C D131A, the sfGFP reporter fluorescence in series [1] was determined as 0.73 ± 0.082; in series [2] (ligand: 1 µM Pb), 1.4 ± 0.048; in series [2] (ligand: 30 µM Zn), 2.23 ± 0.17.

N83T L85M: the values for the sfGFP reporter fluorescence in series [1], in series [2] (ligand: 1 µM Pb) and in series [2] (ligand: 30 µM Zn) were 0.0622 ± 0.0036, 0.0669 ± 0.0024 and 0.105 ± 0.003, respectively.

Consider N83T L85R, for which the values for the sfGFP reporter fluorescence in series [1], in series [2] (ligand: 1 µM Pb) and in series [2] (ligand: 30 µM Zn) were 0.061 ± 0.0026, 0.0607 ± 0.0035 and 0.0601 ± 0.0029, respectively.

As for N83T L85A, the sfGFP reporter fluorescence in series [1] was found to be 0.06145 ± 0.00056; in series [2] (ligand: 1 µM Pb) it was 0.0596 ± 0.0031; in series [2] (ligand: 30 µM Zn), 0.0602 ± 0.00076.
